Laboratory results taken from paper PMC4945389.

Columns and labels:
[1] = surface biotinylation, HEK293; details: glycan changed form; control: UT-A3 alone
[2] = cycloheximide chase 12 h, Western blot, HEK293; details: glycan changed form; control: UT-A3 alone
[3] = surface biotinylation, Xenopus oocytes
[4] = FSK-stimulated surface biotinylation, HEK293; details: glycan lost; control: wild type
[5] = FSK-stimulated total UT-A3, Western blot, HEK293; details: glycan lost; control: wild type
[6] = glycan lost, control: wild type UT-A3, untreated

| Protein | localisation_or_trafficking [1] | localisation_or_trafficking [3, 6] | further results |
| --- | --- | --- | --- |
| UT-A3: ST6GalI co-transfection (protein) parent chain: MSDHPLKEMSDNNRSPPLPEPLSSRYKLYESELSSPTWPSSSQDTHPALPLLEMPEEKDLRSSDEDSHIVKIEKPNERSKRRESELPRRASAGRGAFSLFQAVSYLTGDMKECKNWLKDKPLVLQFLDWVLRGAAQVMFVNNPLSGLIIFIGLLIQNPWWTIAGALGTVVSTLAALALSQDRSAIASGLHGYNGMLVGLLVAVFSEKLDYYWWLLFPVTFASMACPVISSALSTVFAKWDLPVFTLPFNIALTLYLAATGHYNLFFPTTLVKPASSAPNITWSEIEMPLLLQTIPVGVGQVYGCDNPWTGGVILVALFISSPLICLHAAIGSIVGLLAALTVATPFETIYTGLWSYNCVLSCVAIGGMFYVLTWQTHLLALVCALFCAYTGAALSNMMAVVGVPPGTWAFCLSTLTFLLLTSNNPGIHKLPLSKVTYPEANRIYFLTAKRSDEQKPPNGG | increases | – | degradation_or_half_life [2]: increases |
| UT-A3: ST6GalI cRNA co-injection (protein) parent chain: MSDHPLKEMSDNNRSPPLPEPLSSRYKLYESELSSPTWPSSSQDTHPALPLLEMPEEKDLRSSDEDSHIVKIEKPNERSKRRESELPRRASAGRGAFSLFQAVSYLTGDMKECKNWLKDKPLVLQFLDWVLRGAAQVMFVNNPLSGLIIFIGLLIQNPWWTIAGALGTVVSTLAALALSQDRSAIASGLHGYNGMLVGLLVAVFSEKLDYYWWLLFPVTFASMACPVISSALSTVFAKWDLPVFTLPFNIALTLYLAATGHYNLFFPTTLVKPASSAPNITWSEIEMPLLLQTIPVGVGQVYGCDNPWTGGVILVALFISSPLICLHAAIGSIVGLLAALTVATPFETIYTGLWSYNCVLSCVAIGGMFYVLTWQTHLLALVCALFCAYTGAALSNMMAVVGVPPGTWAFCLSTLTFLLLTSNNPGIHKLPLSKVTYPEANRIYFLTAKRSDEQKPPNGG | – | – | localisation_or_trafficking ([3]; glycan changed form, control: UT-A3 cRNA alone): increases |
| UT-A3: ST3GalIV co-transfection (protein) parent chain: MSDHPLKEMSDNNRSPPLPEPLSSRYKLYESELSSPTWPSSSQDTHPALPLLEMPEEKDLRSSDEDSHIVKIEKPNERSKRRESELPRRASAGRGAFSLFQAVSYLTGDMKECKNWLKDKPLVLQFLDWVLRGAAQVMFVNNPLSGLIIFIGLLIQNPWWTIAGALGTVVSTLAALALSQDRSAIASGLHGYNGMLVGLLVAVFSEKLDYYWWLLFPVTFASMACPVISSALSTVFAKWDLPVFTLPFNIALTLYLAATGHYNLFFPTTLVKPASSAPNITWSEIEMPLLLQTIPVGVGQVYGCDNPWTGGVILVALFISSPLICLHAAIGSIVGLLAALTVATPFETIYTGLWSYNCVLSCVAIGGMFYVLTWQTHLLALVCALFCAYTGAALSNMMAVVGVPPGTWAFCLSTLTFLLLTSNNPGIHKLPLSKVTYPEANRIYFLTAKRSDEQKPPNGG | no change | – | – |
| UT-A3: N279Q (protein) parent chain: MSDHPLKEMSDNNRSPPLPEPLSSRYKLYESELSSPTWPSSSQDTHPALPLLEMPEEKDLRSSDEDSHIVKIEKPNERSKRRESELPRRASAGRGAFSLFQAVSYLTGDMKECKNWLKDKPLVLQFLDWVLRGAAQVMFVNNPLSGLIIFIGLLIQNPWWTIAGALGTVVSTLAALALSQDRSAIASGLHGYNGMLVGLLVAVFSEKLDYYWWLLFPVTFASMACPVISSALSTVFAKWDLPVFTLPFNIALTLYLAATGHYNLFFPTTLVKPASSAPNITWSEIEMPLLLQTIPVGVGQVYGCDNPWTGGVILVALFISSPLICLHAAIGSIVGLLAALTVATPFETIYTGLWSYNCVLSCVAIGGMFYVLTWQTHLLALVCALFCAYTGAALSNMMAVVGVPPGTWAFCLSTLTFLLLTSNNPGIHKLPLSKVTYPEANRIYFLTAKRSDEQKPPNGG | – | decreases | localisation_or_trafficking, other: % increase by FSK [4]: decreases; expression_or_secretion, other: % increase by FSK [5]: decreases |
| UT-A3: tunicamycin (protein) parent chain: MSDHPLKEMSDNNRSPPLPEPLSSRYKLYESELSSPTWPSSSQDTHPALPLLEMPEEKDLRSSDEDSHIVKIEKPNERSKRRESELPRRASAGRGAFSLFQAVSYLTGDMKECKNWLKDKPLVLQFLDWVLRGAAQVMFVNNPLSGLIIFIGLLIQNPWWTIAGALGTVVSTLAALALSQDRSAIASGLHGYNGMLVGLLVAVFSEKLDYYWWLLFPVTFASMACPVISSALSTVFAKWDLPVFTLPFNIALTLYLAATGHYNLFFPTTLVKPASSAPNITWSEIEMPLLLQTIPVGVGQVYGCDNPWTGGVILVALFISSPLICLHAAIGSIVGLLAALTVATPFETIYTGLWSYNCVLSCVAIGGMFYVLTWQTHLLALVCALFCAYTGAALSNMMAVVGVPPGTWAFCLSTLTFLLLTSNNPGIHKLPLSKVTYPEANRIYFLTAKRSDEQKPPNGG | – | decreases | – |
